The values below come from US8211429 (dated 2012).

One test addresses BSA (bovine, UniProt P02769). Description: SPR up to 500 nM.
The target in test [1] is T1, ErbB2-ECD (human, UniProt P04626). Description: SPR up to 500 nM.
For test [2], the target named is T2, human NRP2 (human, UniProt O60462).
T2 chain: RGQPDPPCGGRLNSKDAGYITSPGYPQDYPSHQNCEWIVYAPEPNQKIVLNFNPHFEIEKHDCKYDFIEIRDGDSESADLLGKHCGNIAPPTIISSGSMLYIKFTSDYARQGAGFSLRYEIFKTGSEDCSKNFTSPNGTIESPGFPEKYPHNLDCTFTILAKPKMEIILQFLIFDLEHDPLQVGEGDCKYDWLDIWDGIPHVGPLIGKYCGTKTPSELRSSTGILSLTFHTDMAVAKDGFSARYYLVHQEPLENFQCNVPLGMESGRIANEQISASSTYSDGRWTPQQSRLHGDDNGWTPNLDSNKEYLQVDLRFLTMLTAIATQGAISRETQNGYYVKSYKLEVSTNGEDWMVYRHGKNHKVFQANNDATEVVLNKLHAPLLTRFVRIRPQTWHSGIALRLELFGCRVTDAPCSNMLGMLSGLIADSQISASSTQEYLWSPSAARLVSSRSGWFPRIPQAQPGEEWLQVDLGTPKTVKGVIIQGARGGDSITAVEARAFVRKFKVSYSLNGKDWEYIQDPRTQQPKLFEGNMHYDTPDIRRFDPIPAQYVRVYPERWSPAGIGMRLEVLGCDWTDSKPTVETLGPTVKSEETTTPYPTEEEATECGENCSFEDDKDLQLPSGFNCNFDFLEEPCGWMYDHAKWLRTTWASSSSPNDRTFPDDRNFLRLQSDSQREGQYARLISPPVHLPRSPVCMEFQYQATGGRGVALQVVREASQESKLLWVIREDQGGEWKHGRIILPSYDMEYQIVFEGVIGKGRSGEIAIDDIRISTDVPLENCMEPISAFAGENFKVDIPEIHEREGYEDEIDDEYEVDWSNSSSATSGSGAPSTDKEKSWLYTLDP
In words: SPR up to 500 nM.

Test [3] addresses T3, murine NRP2 (mouse, UniProt O35375).
T3 chain: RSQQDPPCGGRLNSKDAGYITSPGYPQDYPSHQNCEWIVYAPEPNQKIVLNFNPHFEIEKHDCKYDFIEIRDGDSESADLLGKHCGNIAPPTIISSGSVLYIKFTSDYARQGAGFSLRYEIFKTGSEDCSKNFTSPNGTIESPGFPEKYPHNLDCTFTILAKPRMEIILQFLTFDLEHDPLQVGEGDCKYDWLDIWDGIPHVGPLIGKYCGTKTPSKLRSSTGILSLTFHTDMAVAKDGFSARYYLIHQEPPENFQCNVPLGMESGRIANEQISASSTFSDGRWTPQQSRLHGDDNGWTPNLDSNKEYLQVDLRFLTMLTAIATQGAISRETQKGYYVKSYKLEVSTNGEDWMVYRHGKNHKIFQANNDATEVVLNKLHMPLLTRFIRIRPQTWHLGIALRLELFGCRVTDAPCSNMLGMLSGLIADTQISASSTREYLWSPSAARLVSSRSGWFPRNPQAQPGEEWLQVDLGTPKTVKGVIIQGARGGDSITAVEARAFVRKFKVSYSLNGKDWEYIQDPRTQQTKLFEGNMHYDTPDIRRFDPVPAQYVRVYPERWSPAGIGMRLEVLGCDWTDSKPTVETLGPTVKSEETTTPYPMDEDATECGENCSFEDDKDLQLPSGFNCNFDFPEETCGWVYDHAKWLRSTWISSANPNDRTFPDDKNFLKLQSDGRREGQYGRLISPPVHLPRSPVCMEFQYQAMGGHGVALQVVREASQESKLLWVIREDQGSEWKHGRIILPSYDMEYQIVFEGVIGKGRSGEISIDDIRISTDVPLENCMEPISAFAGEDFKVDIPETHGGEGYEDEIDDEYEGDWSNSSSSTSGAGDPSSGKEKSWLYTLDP
In words: SPR up to 500 nM.

Test [4] deals with T4, murine NRP1 (mouse, UniProt P97333).
T4 chain: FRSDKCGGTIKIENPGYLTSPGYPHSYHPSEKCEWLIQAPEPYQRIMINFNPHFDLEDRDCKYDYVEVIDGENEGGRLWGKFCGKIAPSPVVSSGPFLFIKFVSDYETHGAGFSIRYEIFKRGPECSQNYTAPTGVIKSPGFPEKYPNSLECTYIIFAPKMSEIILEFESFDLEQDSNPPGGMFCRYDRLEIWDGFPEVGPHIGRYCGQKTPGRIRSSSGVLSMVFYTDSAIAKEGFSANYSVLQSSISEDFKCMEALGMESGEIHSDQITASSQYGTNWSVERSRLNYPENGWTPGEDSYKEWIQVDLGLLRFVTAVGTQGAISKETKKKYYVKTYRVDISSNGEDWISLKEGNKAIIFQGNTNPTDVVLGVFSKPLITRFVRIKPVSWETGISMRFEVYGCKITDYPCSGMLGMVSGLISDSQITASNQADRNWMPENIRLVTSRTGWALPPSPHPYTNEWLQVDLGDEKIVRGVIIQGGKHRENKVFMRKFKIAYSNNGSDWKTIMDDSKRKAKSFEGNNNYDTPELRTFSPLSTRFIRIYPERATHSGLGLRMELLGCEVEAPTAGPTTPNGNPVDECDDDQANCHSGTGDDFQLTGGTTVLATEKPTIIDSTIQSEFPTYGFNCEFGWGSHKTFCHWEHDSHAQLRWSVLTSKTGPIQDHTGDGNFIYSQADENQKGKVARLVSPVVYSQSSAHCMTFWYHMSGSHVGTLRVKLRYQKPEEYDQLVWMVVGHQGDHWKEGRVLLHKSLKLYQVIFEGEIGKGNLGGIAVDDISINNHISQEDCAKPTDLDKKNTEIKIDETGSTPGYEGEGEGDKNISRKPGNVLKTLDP
Description: SPR 25C.

Test [5] has as its target T5, human NRP1 (human, UniProt O14786). Description: SPR 25C.
The target in test [6] is T4, murine NRP1. Description: competition phage ELISA. Background: In an ELISA, binding on a coated surface is turned into a signal by an enzyme label.
For test [7], the target named is T5, human NRP1. Description: competition phage ELISA.
Test [8] addresses T1, ErbB2-ECD. In words: SPR.
Test [9] concerns the target T5, human NRP1. In words: competition phage ELISA. The source holds these as a separate data set.
In test [10] the target is T4, murine NRP1. Description: competition phage ELISA.
Test [11] concerns the target T3, murine NRP2. In words: SPR.
Test [12] deals with T2, human NRP2. Description: SPR. Background: SPR reads the build-up and loss of mass on a sensor chip optically.

Changes are numbered by the printed parent chain. Read-outs that look alike come from different tables or passages of the source.

Sequence of BSA (P02769 25-607): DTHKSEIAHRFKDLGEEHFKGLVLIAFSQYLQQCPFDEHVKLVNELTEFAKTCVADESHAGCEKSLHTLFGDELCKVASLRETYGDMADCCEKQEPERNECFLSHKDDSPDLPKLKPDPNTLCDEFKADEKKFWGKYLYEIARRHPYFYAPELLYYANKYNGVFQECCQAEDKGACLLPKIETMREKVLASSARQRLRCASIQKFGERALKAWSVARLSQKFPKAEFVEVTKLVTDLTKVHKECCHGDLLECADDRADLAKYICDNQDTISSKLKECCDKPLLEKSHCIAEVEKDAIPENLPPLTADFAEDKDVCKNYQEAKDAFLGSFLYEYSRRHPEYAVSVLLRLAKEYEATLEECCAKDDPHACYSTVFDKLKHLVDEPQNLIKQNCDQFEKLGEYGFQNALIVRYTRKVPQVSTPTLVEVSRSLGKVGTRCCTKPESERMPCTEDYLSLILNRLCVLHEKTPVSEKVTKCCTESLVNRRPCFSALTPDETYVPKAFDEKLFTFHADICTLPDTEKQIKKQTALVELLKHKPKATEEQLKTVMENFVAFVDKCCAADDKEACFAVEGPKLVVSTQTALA

B1: YW64.3 (antibody, V domains shown)
VH: EVQLVESGGGLVQPGGSLRLSCAASGFSFSSEPISWVRQAPGKGLEWVSSITGKNGYTYYADSVKGRFTISADTSKNTAYLQMNSLRAEDTAVYYCARWGKKVYGMDVWGQGTLVTVSS
VL: DIQMTQSPSSLSASVGDRVTITCRASQSISSYLAWYQQKPGKAPKLLIYGASSRASGVPSRFSGSGSGTDFTLTISSLQPEDFATYYCQQYMSVPITFGQGTKVEIKR
As for B1, the binding result with BSA, in the test with ErbB2-ECD [1], with human NRP2 [2] and with murine NRP2 [3] was “no binding” throughout.

B2: YW107.4.18 (antibody, V domains shown)
VH: EVQLVESGGGLVQPGGSLRLSCAASGFTFSSYAMSWVRQAPGKGLEWVSQISPAGGYTNYADSVKGRFTISADTSKNTAYLQMNSLRAEDTAVYYCARELPYYRMSKVMDVWGQGTLVTVSS
VL: B1 VL with S28Y, I29F, S53T, R54H, A55E, M92I, S93R, V94S, I96L
In general, Kd refers to a measure of binding affinity in units of concentration. The low end stands for higher affinity, the high end for lower affinity. One may read the IC50 as the midpoint of a concentration-inhibition curve. A high value points to weaker potency. Turning to B2, the figures for the dissociation constant Kd in the test with murine NRP1 [4] and with human NRP1 [5] were 2.1 nM and 1 nM, respectively. Further, the IC50 with murine NRP1 [6] was found to be 1.1 nM.

B3: YW107.4 (antibody, V domains shown)
VH: B2 VH
VL: B1 VL with M92Y, V94S, I96L
Consider B3, for which the Kd in the test with murine NRP1 [4] worked out at 11 nM; with human NRP1 [5] it was 5 nM. Further, the concentration for half-maximal inhibition (IC50) with human NRP1 [7] stood at 6.1 nM; with murine NRP1 [6], 38 nM; with human NRP1 [9], 6.1 nM; with murine NRP1 [10] it was 38 nM. Besides, the binding result with BSA, in the test with ErbB2-ECD [8], in the test with human NRP2 [2] and in the test with murine NRP2 [3] was “no binding” in each case.

B4: YW107.4.76a (antibody, V domains shown)
VH: B2 VH
VL: B1 VL with S28Y, S53R, M92L, S93R, V94S, I96H
For the molecule B4, the equilibrium dissociation constant (Kd) with murine NRP1 [4] is 31 nM; with human NRP1 [5] it was 1.4 nM. Further, the IC50 in the test with murine NRP1 [6] came to 0.8 nM; in the test with human NRP1 [9] it was 0.23 nM.

B5: YW107.4.63 (antibody, V domains shown)
VH: B2 VH
VL: B1 VL with S28Y, I29L, R54S, A55E, M92I, I96L
With B5, the dissociation constant (Kd) with murine NRP1 [4] and with human NRP1 [5] was 0.8 nM in each case. Also, the IC50 was determined as 0.8 nM in the test with murine NRP1 [6] and 0.15 nM with human NRP1 [9].

B6: YW107.4.38 (antibody, V domains shown)
VH: B2 VH
VL: B1 VL with S28Y, I29L, M92L, S93R, V94S
As for B6, the Kd with murine NRP1 [4] was 3.2 nM; in the test with human NRP1 [5], 1.8 nM. The 50% inhibitory concentration (IC50) was found to be 1.4 nM with murine NRP1 [6] and 0.28 nM with human NRP1 [9].

B7: YW107.4.87 (antibody, V domains shown)
VH: B2 VH
VL: B1 VL with S28Y, I29F, M92L, S93G, V94S, I96P
For B7, the binding result with murine NRP2 [11] and with human NRP2 [12] was “no binding” in each case.

B8: YW107.4.52 (antibody, V domains shown)
VH: B2 VH
VL: B1 VL with S28Y, I29F, S53T, R54L, M92I, S93R, V94S, I96L
For the molecule B8, the Kd stood at 1.2 nM in the test with murine NRP1 [4] and 0.9 nM with human NRP1 [5]. Moreover, the concentration for half-maximal inhibition (IC50) with murine NRP1 [6] came to 1.1 nM; with human NRP1 [9], 0.22 nM.
